According to patent publication US20150246946A1, “PEPTIDES AND METHODS FOR TREATING CANCER” (AGENCY FOR SCIENCE, TECHNOLOGY AND RESEARCH, priority 2012, published 2015):
Read-outs that look alike come from different tables or passages of the source. Where a SMILES comes first, the peptide text is derived from it. Bridges are numbered along the chain shown (N, C = ends). [ ]: non-standard residue; d: D form. Trp(6-Cl) = N[C@@H](Cc1c[nH]c2cc(Cl)ccc12)C(=O)O; dTrp(6-Cl) = N[C@H](Cc1c[nH]c2cc(Cl)ccc12)C(=O)O; R8 = C=CCCCCCC[C@@](C)(N)C(=O)O; S5 = C=CCCC[C@](C)(N)C(=O)O

What was measured:
Mdm2 (1-125) [1] = target: T1, Mdm2 (1-125) (Homo sapiens, UniProt Q00987); experiment: competitive fluorescence polarization/anisotropy, apparent Kd against Mdm2; assay type: binding
T1 construct: Mdm2 (1-125) and Mdm4 (1-125) were ligated into the GST fusion expression vector pGEX-6P-1; GST (N, cleaved yes); made in house; host or cells: E. coli BL21 DE3
T1 sequence (Q00987 1-125): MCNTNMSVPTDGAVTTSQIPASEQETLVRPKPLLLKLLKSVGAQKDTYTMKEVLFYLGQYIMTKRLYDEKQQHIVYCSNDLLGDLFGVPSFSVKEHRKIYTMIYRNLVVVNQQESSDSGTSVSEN
Method: (§1) The cells expressing the GST fusion constructs were grown in LB medium at 37° C. to an OD600 of ˜0.6 and induction was started with 1 mM IPTG and carried out overnight at room temperature. Cells were harvested by centrifugation and the cell pellets were re-suspended in 50 mM Tris pH 8.0, 10% sucrose and were then sonicated. The sonicated sample was centrifuged for 60 mins at 17,000 g at 4° C. […] The column was then further washed by 6 volumes of wash buffer. Mdm2 and Mdm4 were then purified from the column by cleavage with Precission (GE Lifesciences) protease. 10 units of precission protease, in one column volume of PBS with 1 mM DTT buffer, were injected onto the column. The cleavage reaction was allowed to proceed overnight at 4° C. The cleaved protein was then eluted of the column with wash buffer. Protein fractions were analyzed with SDS page gel and concentrated using a Centricon (3.5 kDa MWCO) concentrator, Millipore. Mdm2 and Mdm4 protein samples were then dialyzed into a buffer solution containing 20 mM Bis-Tris, pH 6.5, 0.05M NaCl with 1 mM DTT and loaded onto a monoS column pre-equilibrated in buffer A (20 mM Bis-Tris, pH 6.5, 1 mM DTT). The column was then washed in 6 column volumes of buffer A and bound protein was eluted with a linear gradient of 1M NaCL over 25 column volumes. Protein fractions were analyzed with SDS page gel and concentrated using a Centricon (3.5 kDa MWCO) concentrator from Millipore.
(§2) Apparent Kd values were determined for a variety of molecules via competitive fluorescence anisotropy experiments. […] The competing molecules were then titrated against complex of the FAM labelled peptide and protein. Apparent Kd values were determined by fitting the experimental data to the equations shown below:
(§3) [L]st and [L]t denote labelled ligand and total unlabelled ligand input concentrations, respectively. Kd2 is the dissociation constant of the interaction between the unlabelled ligand and the protein. In all competitive types of experiments, it is assumed that [P]t>[L]st, otherwise considerable amounts of free labelled ligand would always be present and would interfere with measurements. […] The FAM-labelled peptide were dissolved in DMSO at 1 mM and diluted into experimental buffer. Readings were carried out with a Envision Multilabel Reader (PerkinElmer). […] All titrations were carried out in triplicate. Curve-fitting was carried out using Prism 4.0 (GraphPad).

[2] = tested on: p53 responsive LacZ reporter gene in T22 cell line; experiment: T22 p53 β-galactosidase based reporter assay; assay type: cell-based, murine; conditions: 18 hours, DMEM with 10% FBS
Method: T22 cells, which were stably transfected with a p53 responsive […] reporter, were seeded into 96-well plate at a cell density of 8000 cells per well. […] Measurements were carried out using a Safire II multiplate reader (TECAN). Experiments were carried out independently twice.

Mdm4 (1-125) [3] = target: T2, Mdm4 (1-125) (Homo sapiens, UniProt O15151); experiment: competitive fluorescence polarization/anisotropy, apparent Kd against Mdm4; assay type: binding
T2 construct: Mdm4 (1-125) were ligated into the GST fusion expression vector pGEX-6P-1; GST (N, cleaved yes); made in house; host or cells: E. coli BL21 DE3
T2 sequence (O15151 1-125): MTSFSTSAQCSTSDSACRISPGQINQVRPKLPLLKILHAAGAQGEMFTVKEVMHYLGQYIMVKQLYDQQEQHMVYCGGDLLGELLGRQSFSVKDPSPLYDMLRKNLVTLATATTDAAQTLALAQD
Method: as §1, §2, §3

p53 null thymocytes = experiment: cell viability in mouse thymocytes, p53 null; assay type: cell-based, mice; conditions: high doses, 24 hours, annexin V/PI
Mdm2 (1-125) [4] = target: T3, Mdm2 (1-125) (human, UniProt Q00987 1-125); experiment: apparent Kd, competitive fluorescence polarization; displacement of FAM-…-NH2 from Mdm2 (1-125)
T3 construct: range 1-125; also called Hdm2
T3 sequence (Q00987 1-125 limits assumed): as the sequence (Q00987 1-125) above

Mdm4 (1-125) [5] = target: T4, Mdm4 (1-125) (human, UniProt O15151 1-125); experiment: apparent Kd, competitive fluorescence polarization; displacement of FAM-…-NH2 from Mdm4 (1-125)
T4 construct: range 1-125; also called MDMX; Hdm4
T4 sequence (looked up): T2 sequence (O15151 1-125)

Mdm4 (1-125) [6] = target: T4, Mdm4 (1-125); experiment: as above; remark: listed apart in the source
Mdm2 (1-125) [7] = target: T3, Mdm2 (1-125); experiment: apparent Kd, competitive fluorescence polarization; displacement of FAM-…-NH2 from Mdm2 (1-125); remark: listed apart in the source

Which “increase in Kd against Mdm2 in comparison to unstapled counterpart” value (Mdm2 (1-125) [1]; stapled vs unstapled peptide) does the source give for `CC(=O)N[C@H](C(=O)N[C@@H](CO)C(=O)N[C@@H](Cc1ccccc1)C(=O)N[C@]1(C)CCCCCCC=CCCC[C@@](C)(C(N)=O)NC(=O)[C@H](CC(C)C)NC(=O)[C@H](CC(C)C)NC(=O)[C@H](CC(N)=O)NC(=O)[C@H](Cc2c[nH]c3ccccc23)NC(=O)[C@H](Cc2ccc(O)cc2)NC(=O)[C@H](CCC(=O)O)NC1=O)[C@@H](C)O` [sMTide-01, Ac-^1TSFXEYWNLLX^11-NH2] (Ac-TSF[R8]EYWNLL[S5]-NH2; staple 4-11) here?
The value was “approximately 2 fold”.

And the “p53 transcriptional activity in T22 p53 reporter assay” value (from here on “p53 transcriptional activity”) [2]?
The value was “little activity”.

And the “increase in Kd against Mdm4 in comparison to unstapled counterpart” value (Mdm4 (1-125) [3]; stapled vs unstapled peptide)?
Its value is 4 fold.

`CC(=O)N[C@H](C(=O)N[C@@H](CO)C(=O)N[C@@H](Cc1ccccc1)C(=O)N[C@]1(C)CCCCCCC=CCCC[C@@](C)(C(N)=O)NC(=O)[C@H](CC(C)C)NC(=O)[C@H](CC(C)C)NC(=O)[C@H](C)NC(=O)[C@@H](Cc2c[nH]c3cc(Cl)ccc23)NC(=O)[C@H](Cc2ccc(O)cc2)NC(=O)[C@H](CCC(=O)O)NC1=O)[C@@H](C)O` [sMTide-02B, Ac-^1TSFXEY(D-6-Cl)WALLX^11-NH2] was tested. Which “p53 transcriptional activity” value [2] did it give?
The value was “negligible activity”.

And the “Mdm4 Kd” value (Mdm4 (1-125) [3]; apparent Kd, competitive fluorescence polarization, Mdm4 75 nM, FAM peptide 50 nM)?
The value was “attenuated”.

With `CC(=O)N[C@H](C(=O)N[C@@H](CO)C(=O)N[C@@H](Cc1ccccc1)C(=O)N[C@]1(C)CCCCCCC=CCCC[C@@](C)(C(N)=O)NC(=O)[C@H](CC(C)C)NC(=O)[C@H](CC(C)C)NC(=O)[C@H](Cc2ccccc2)NC(=O)[C@H](Cc2c[nH]c3ccccc23)NC(=O)[C@H](Cc2ccc(O)cc2)NC(=O)[C@H](CCC(=O)O)NC1=O)[C@@H](C)O` [sMTide-07, Ac-^1TSFXEYWFLLX^11-NH2] (Ac-TSF[R8]EYWFLL[S5]-NH2; staple 4-11) as the molecule, how does the “p53 transcriptional activity” value [2] read?
Its value is “diminish the ability of sMTide-07 to induce p53, compared to sMTide-06”.

With `CC(=O)N[C@@H](CO)C(=O)N[C@@H](Cc1ccccc1)C(=O)N[C@]1(C)CCCCCCC=CCCC[C@@](C)(C(N)=O)NC(=O)[C@H](CC(C)C)NC(=O)[C@H](CC(C)C)NC(=O)[C@H](C)NC(=O)[C@H](Cc2c[nH]c3ccccc23)NC(=O)[C@H](Cc2ccc(O)cc2)NC(=O)[C@H](CCC(=O)O)NC1=O` [sMTide-04, Ac-^2SFXEYWALLX^11-NH2] (Ac-SF[R8]EYWALL[S5]-NH2; staple 3-10) as the molecule, how does the “preference between Mdm2 and Mdm4 in binding” value (Mdm2 (1-125) [1]; comparison of apparent Kds) read?
Its value is “interacted more tightly with Mdm4 than with Mdm2”.

`COc1ccc(C2=N[C@@H](c3ccc(Cl)cc3)[C@@H](c3ccc(Cl)cc3)N2C(=O)N2CCNC(=O)C2)c(OC(C)C)c1` [nutlin, reference compound] was tested. Which “apoptosis in p53 null thymocytes” value (p53 null thymocytes) did it give?
The value was “caused apoptosis in p53 null thymocytes”.

Which Kd (Mdm2 (1-125) [4]) does the source give for Ac-TSFAEYWNLLS-NH2 (Linear phage-derived peptide) [MTide-01] here?
Its Kd is 46.3 nM.

What about the Kd (Mdm4 (1-125) [5]) of the same molecule?
The Kd was 33.2 nM.

B1: sMTide-04 (peptide)
peptide: Ac-SF[R8]EYWALL[S5]-NH2
modifications: staple 3-10
SMILES: CC(=O)N[C@@H](CO)C(=O)N[C@@H](Cc1ccccc1)C(=O)N[C@]1(C)CCCCCCC=CCCC[C@@](C)(C(N)=O)NC(=O)[C@H](CC(C)C)NC(=O)[C@H](CC(C)C)NC(=O)[C@H](C)NC(=O)[C@H](Cc2c[nH]c3ccccc23)NC(=O)[C@H](Cc2ccc(O)cc2)NC(=O)[C@H](CCC(=O)O)NC1=O
notes: also called Ac-SFXEYWALLX-NH2
For B1, which Kd (Mdm4 (1-125) [6]) is on record?
The Kd was 63 nM.

And the Kd (Mdm2 (1-125) [7])?
Its Kd is 104 nM.

B2: sMTide-02B (peptide)
peptide: Ac-TSF[R8]EY[dTrp(6-Cl)]ALL[S5]-NH2
modifications: staple 4-11
notes: also called Ac-TSFXEY(D-6-Cl)WALLX-NH2; D-isomer
B2 was tested. Which Kd (Mdm4 (1-125) [5]) did it give?
The Kd was 2160 nM.

B3: sMTide-02A (peptide)
peptide: Ac-TSF[R8]EY[Trp(6-Cl)]ALL[S5]-NH2
modifications: staple 4-11
notes: also called Ac-TSFXEY(L-6-Cl)WALLX-NH2; L-isomer
Which Kd (Mdm4 (1-125) [5]) does the source give for B3 here?
Its Kd is 1360 nM.

B4: sMTide-05 (peptide)
peptide: Ac-TSF[R8]EYWKLL[S5]-NH2
modifications: staple 4-11
SMILES: CC(=O)N[C@H](C(=O)N[C@@H](CO)C(=O)N[C@@H](Cc1ccccc1)C(=O)N[C@]1(C)CCCCCCC=CCCC[C@@](C)(C(N)=O)NC(=O)[C@H](CC(C)C)NC(=O)[C@H](CC(C)C)NC(=O)[C@H](CCCCN)NC(=O)[C@H](Cc2c[nH]c3ccccc23)NC(=O)[C@H](Cc2ccc(O)cc2)NC(=O)[C@H](CCC(=O)O)NC1=O)[C@@H](C)O
notes: also called Ac-TSFXEYWKLLX-NH2
Which results are given for B4?
Kd (Mdm4 (1-125) [6]): 29.9 nM; Kd (Mdm2 (1-125) [7]): 26.3 nM

B5: sMTide-07 (peptide)
peptide: Ac-TSF[R8]EYWFLL[S5]-NH2
modifications: staple 4-11
SMILES: CC(=O)N[C@H](C(=O)N[C@@H](CO)C(=O)N[C@@H](Cc1ccccc1)C(=O)N[C@]1(C)CCCCCCC=CCCC[C@@](C)(C(N)=O)NC(=O)[C@H](CC(C)C)NC(=O)[C@H](CC(C)C)NC(=O)[C@H](Cc2ccccc2)NC(=O)[C@H](Cc2c[nH]c3ccccc23)NC(=O)[C@H](Cc2ccc(O)cc2)NC(=O)[C@H](CCC(=O)O)NC1=O)[C@@H](C)O
notes: also called Ac-TSFXEYWFLLX-NH2
Which Kd (Mdm4 (1-125) [6]) does the source give for B5 here?
The Kd was 394 nM.

What about the Kd (Mdm2 (1-125) [7]) of the same molecule?
Its Kd is 175 nM.

B6: sMTide-06 (peptide)
peptide: Ac-TSF[R8]EYWYLL[S5]-NH2
modifications: staple 4-11
SMILES: CC(=O)N[C@H](C(=O)N[C@@H](CO)C(=O)N[C@@H](Cc1ccccc1)C(=O)N[C@]1(C)CCCCCCC=CCCC[C@@](C)(C(N)=O)NC(=O)[C@H](CC(C)C)NC(=O)[C@H](CC(C)C)NC(=O)[C@H](Cc2ccc(O)cc2)NC(=O)[C@H](Cc2c[nH]c3ccccc23)NC(=O)[C@H](Cc2ccc(O)cc2)NC(=O)[C@H](CCC(=O)O)NC1=O)[C@@H](C)O
notes: also called Ac-TSFXEYWYLLX-NH2
For B6, which Kd (Mdm4 (1-125) [6]) is on record?
Its Kd is 328 nM.

What about the Kd (Mdm2 (1-125) [7]) of the same molecule?
The Kd was 128 nM.
